# B1: HDV Ribozyme (parent)
# chain: GGCCGGCAUGGUCCCAGCCUCCUCGCUGGCGCCGGCUGGGCAACAUUCCGAGGGGACCGUCCCCUCGGUAAUGGCGAAUGGGACCCA
# Variants of: B1
# Test: self-cleavage, relative activity (ratio to wild type); higher = more cleavage; co-transcriptional
row,Variant,self-cleavage
1,G67C G81U,0.157
2,G34C G40U,0.151
3,G35A A42G,0.17
4,C66U G73C,0.528
5,G73U G82C,0.157
6,G50C C63U,0.997
7,C7G G74U,0.0361
8,G53C G54C,0.706
9,G76C C84U,1.04
10,C3U U46C,0.567
11,A42G A77G,0.208
12,C19A C63G,0.256
13,A51C U65A,1.04
14,C14U A83G,0.54
15,A77C U79C,0.138
16,G67C G82C,0.289
17,G28A A51G,0.0326
18,G40C C64G,0.242
19,G6U G67U,0.62
20,G10A G81A,0.187
21,C57A U65C,0.762
22,U9A U69C,0.802
23,G29C C36U,0.0755
24,C21A A77G,0.0678

row,Variant,self-cleavage
1,C7G C14U,0.196
2,C13U A87U,0.819
3,G35U G50U,0.426
4,G2A A56G,0.242
5,A45C C66U,0.8
6,C44G G54U,0.609
7,G25U G82A,0.0678
8,C22G A87U,0.141
9,G28U C36G,0.0665
10,C61G G80A,0.434
11,G29A C64U,0.144
12,C30A C57A,0.688
13,C44U U65A,0.846
14,G17A G80U,0.198
15,A42G A78U,0.162
16,G52U C57G,0.95
17,G55C G74U,0.652
18,G50C U60C,1.13
19,G81U A83C,0.0821
20,C30A G76U,0.554
21,G52U G55A,0.731
22,A42G G73A,0.192
23,C13U A87C,0.647
24,G6C C64U,0.244

row,Variant,self-cleavage
1,C66U U72G,0.582
2,G28A C41U,0.0875
3,G29C C32U,0.119
4,C24G A43U,0.0237
5,G54U U72G,0.919
6,C14U C21U,0.237
7,C7G C26G,0.369
8,G31A G74A,0.132
9,C19G C22U,0.0804
10,C64G G80C,0.305
11,C66G U72C,0.453
12,G39A C48A,0.609
13,G29A C48U,0.0656
14,G1U G74A,0.288
15,A8U G28U,0.131
16,U9A G11C,0.609
17,C15A U37A,0.102
18,U65A G74A,0.489
19,C22G C49A,0.131
20,U47A G50A,0.876
21,U37C C66A,1.25
22,C21U C36A,0.0923
23,C21A A83C,0.0378
24,C7G C26A,0.138

row,Variant,self-cleavage
1,C62A U72G,0.617
2,G29A G80A,0.163
3,G25A G82A,0.0978
4,C3A A8G,0.578
5,C32G C64U,0.109
6,G2C C75A,0
7,A56C G80C,0.189
8,G17C C62A,0.252
9,A8G G17A,0.629
10,C66U G80A,0.475
11,G5C C57G,0.35
12,C18A U60G,0
13,C26G C66G,1.1
14,C3U C63U,0.645
15,U20A A51G,0
16,C3G A43U,0.233
17,U20G U72G,0
18,C57A G73U,0.322
19,G38A C57U,0.211
20,G28A C63A,0.128
21,G6C G52U,0.237
22,G6C G82U,0.122
23,C64A A70U,0.752
24,C36A A71U,0.309

row,Variant,self-cleavage
1,G17U G52C,0.591
2,U37A G38U,0.151
3,C66A C75U,0.292
4,G11C G68C,0.0831
5,C7U G28A,0.136
6,G11C C84A,0.458
7,C48A C85A,0.717
8,C21A C49G,0.102
9,G81A C84A,0.339
10,G10C C19U,0.0264
11,G28A G73U,0.0326
12,C3U U65A,0.872
13,C62G C84G,0.482
14,C14A C49G,0.101
15,C7A U65C,0.522
16,G10U A42U,0.174
17,C4G U60G,0.213
18,G10U G55A,0.893
19,G2C C58G,0.13
20,C19A G50U,0.254
21,C62G G81U,0.133
22,G2A G25C,0.0744
23,C13G G34A,0.0536
24,A71U G81C,0.345

row,Variant,self-cleavage
1,A8C U12G,0.831
2,C19U A77U,0.107
3,C4U C36U,0.272
4,U23A A78U,0.256
5,G50C G81A,0.443
6,C7U A83C,0.287
7,G35C G68C,0.356
8,G1A C19A,0.0744
9,G11A U12C,0.0415
10,A43G A51C,0.745
11,G38C A56U,0.262
12,G17A C26G,0.793
13,G6A G74A,0.0923
14,A83G,0.806
15,G5C A45U,0.131
16,G52A G53C,0.743
17,C22A U69A,0.284
18,G11A G67U,0.237
19,G5A G35C,0.119
20,U23A G34A,0.121
21,U60G U72G,0.646
22,C14U G28C,0.237
23,C22A C33G,0.213
24,C3G A45C,0.113

row,Variant,self-cleavage
1,C13G U69C,0.111
2,C32A C33G,0.0405
3,C32A G34U,0.0791
4,G38U C57U,0.126
5,G6C G38U,0.203
6,G35U C48A,0.49
7,C32A G80C,0.161
8,C19A G74C,0.125
9,G55C G59U,0.87
10,A16C C19A,0.277
11,C64U U65A,0.984
12,C30U,0.746
13,G39C G82C,0.0997
14,A8C G38C,0.0978
15,U37G A77G,0.0831
16,G55C A87G,0.953
17,C15G C64A,0.538
18,A8C U27G,0.88
19,C33U C41U,0.646
20,G34A A43U,0
21,C13U C18A,0.0652
22,C41A G80U,0.187
23,C33U C49U,1.06
